Key:
[1] = test system: K4 kissing-loop RNA reporter; assay: apparent KD of K4 kissing-loop reporter; higher = weaker reporter binding; conditions: Eterna round: R107;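 also: bound reporter read as fluorescence of individual clusters on recovered sequencing chips by microscopy, with normalized cluster intensities fitted with a binding model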
Experimental: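 RNA-MaP round R107: designed RNA switches with theophylline, tryptophan, arginine or FMN aptamers are transcribed on-chip within common flanks. They are titrated with a labelled K4 kissing-loop RNA reporter in RNA-MaP buffer (100 mM Tris pH 7.5, 80 mM KCl, 4 mM MgCl2), without ligand or with the indicated ligand. Median apparent KD per design.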

[2] = test system: MS2 coat protein; assay: apparent KD of MS2 coat protein; designed switch direction (-1 OFF switch, 1 ON switch): -1; higher = weaker reporter binding
How it was run: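 Apparent KD, taken as the median over clusters for each design, was obtained by curve-fitting normalised cluster fluorescence. Designed RNA switches had been transcribed on Illumina chips by stalled E. coli RNA polymerase and titrated with SNAP-549-labelled MS2 coat protein, doubling from 0.7 or 1.5 nM to 3 µM.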

[3] = input ligand: theophylline 20 uM
[4] = input ligand: tryptophan 2.4 mM
[5] = Eterna round: R95, input ligand: FMN 200 uM
[6] = Eterna round: R95, input ligand: microRNA oligo, concentration not stated
[7] = Eterna round: R95, input ligand: none
[8] = input ligand: microRNA oligo, concentration not stated

| Sequence | apparent KD of MS2 coat protein [2, 6] [nM] | apparent KD of MS2 coat protein ([2]; input ligand: FMN 200 uM) [nM] | apparent KD of MS2 coat protein ([2]; input ligand: none) [nM] | other results |
| --- | --- | --- | --- | --- |
| AAAAUAAACCAGUGAUGUUGGUAUCCAGAUACCAGCGACGAAAGUCGCCCUUGGCAGCUGUGGACGUACAAAAUAAGUACGUCCU |  |  |  | apparent KD of K4 kissing-loop reporter ([1]; input ligand: FMN 200 uM): 930 nM; apparent KD of K4 kissing-loop reporter ([1]; input ligand: arginine 13.2 mM): 619 nM; apparent KD of K4 kissing-loop reporter ([1]; input ligand: none): 894 nM; apparent KD of K4 kissing-loop reporter [1, 3]: 746 nM; apparent KD of K4 kissing-loop reporter [1, 4]: 714 nM |
| AAAAUAAAGGAGUGAUGUUCCAUAACGGAUACCAGCCACGAAAGUGGCCCUUGGCAGCUGUGCCAGUGGACGAAUAACGUCCACA [#OpenEnded 6 #StaticStem #K4Early] |  |  |  | apparent KD of K4 kissing-loop reporter ([1]; input ligand: FMN 200 uM): 164 nM; apparent KD of K4 kissing-loop reporter ([1]; input ligand: arginine 13.2 mM): 287 nM; apparent KD of K4 kissing-loop reporter ([1]; input ligand: none): 237 nM; apparent KD of K4 kissing-loop reporter [1, 3]: 280 nM; apparent KD of K4 kissing-loop reporter [1, 4]: 164 nM |
| AAAAUAAAUAGCAGUCAUGGAGUGAUGUUCCGAGGACCGGUACGGCCGCCACUCGACCAUCAUAAGAUGGAUGGCGAAGACUGCA [#SwitchBubble 24 #K4Early] |  |  |  | apparent KD of K4 kissing-loop reporter ([1]; input ligand: FMN 200 uM): 515 nM; apparent KD of K4 kissing-loop reporter ([1]; input ligand: arginine 13.2 mM): 544 nM; apparent KD of K4 kissing-loop reporter ([1]; input ligand: none): 483 nM; apparent KD of K4 kissing-loop reporter [1, 3]: 445 nM; apparent KD of K4 kissing-loop reporter [1, 4]: 864 nM |
| UUUAAUUUUUUUUUUUUACAAGCUUUUUGCUCGUCUUAUACAUGAGGAUCACCCAUGUGGGUGAAAGAUAAAUUAUC [JMF 5] (puzzle: Sensor v3, turn-off variant 2) | 19.2 |  |  | apparent KD of MS2 coat protein [2, 5]: 54.9 nM; apparent KD of MS2 coat protein [2, 7]: 37.6 nM |
| UUUAGUUCAGGAUAUGAUGAAUUAUACAUGAGGAUCACCCAUGUAGAUCCUGAAUUAACAUCAGAAGGGAACAUUU [JL-ex5-4.46 Brourd mod] (Eterna round: R97, puzzle: Exclusion 5) |  | 23 | 16.4 |  |
| UUUAUAUAGUAAGGAUAUGUAUUAUUUUUUUCAACAGAAGGUACUGACAUGAGGAUCACCCAUGUUUUAGUGUGGGCAUGUAGU [JMF's solution 98] (Eterna round: R96, puzzle: Exclusion NG 1) |  |  |  | apparent KD of MS2 coat protein [2, 8]: 323 nM |
| UUUCCGGCGCGGGUUUUUUACAUGAGGAUCACCCAUGUCCUCUGCUUGUCUUGUCUUGGGCUUUUUUUGGGUUCGGG [-19, -39.7 kcal, A 8%] (Eterna round: R97, puzzle: Sensor, turn-off variant 1) |  | 697 |  |  |
| UUUGUUGUUGUGAGGAUAUCGUUGAUUUUUUGAAACGAGAAGGCACAUGAGGAUCACCCAUGUUUGUUGUUGGU [JR_BMOE4_Sub058] (puzzle: Brourd's mod of Exclusion 4) | 58.8 |  |  |  |
| UUUGUUUAUGUAGGAUAUGCCUGGCGUGCCUUUGCAGAAGGACAUGAGGAUCACCCAUGUAUUGCGGUCUGCGUUCAGAUCGCA [salish99_ExNG1_r4_038] (Eterna round: R96, puzzle: Exclusion NG 1) |  | 43.2 | 29.4 | apparent KD of MS2 coat protein [2, 8]: 30.2 nM |
| UUUUAACAUGAGGAUCACCCAUGUGAGGAUAUCGAAAUUUAUAUUAAUAUUAAUAUAUCGAGAAGGCACAUUUU [JMF 24] (puzzle: Exclusion 1) | 74.9 |  |  |  |
| UUUUAACAUGAGGAUCACCCAUGUGAGGAUAUCGAAAUUUAUAUUAAUAUUUUUAUUUCGAGAAGGCACAUUUU [JMF 73] (puzzle: Exclusion 1) | 138 |  |  |  |
| UUUUAACAUGAGGAUCACCCAUGUGAGGAUAUCGUAAUUUAUAUUAAUAUUAAUAAAACGAGAAGGCACAUUUU [JMF 5] (puzzle: Exclusion 1) | 143 |  |  | apparent KD of MS2 coat protein [2, 5]: 138 nM; apparent KD of MS2 coat protein [2, 7]: 85.2 nM |
| UUUUACAUAGGAUAUAGUCUUUUUUACAUGAGGAUCACCCAUGUCUCUCUUUUUUUUUUUCUAGAAGGAUGUUUUU [JR_E5_Sub017] (puzzle: Exclusion 5) | 16.8 |  |  |  |
| UUUUAGAGAGGAUAUAUAUUGUGAAACAUGAGGAUCACCCAUGUAAUAAUAUGGAUGAAAAUAGAAGGCUCAUUUA [Mat - Exclusion 5 - JL mod - D7] (puzzle: Exclusion 5) | 62.7 |  |  | apparent KD of MS2 coat protein [2, 5]: 52.1 nM; apparent KD of MS2 coat protein [2, 7]: 73.6 nM |
| UUUUAGAGAGGAUAUAUGAUGUGAAACAUGAGGAUCACCCAUGUAAUAUUAUGGAUGUAAAUAGAAGGCUCAUUUA [JL-ex5-3.05] (puzzle: Exclusion 5) | 63.3 |  |  | apparent KD of MS2 coat protein [2, 5]: 38.8 nM; apparent KD of MS2 coat protein [2, 7]: 69.1 nM |
| UUUUAGUCAGGAUAUACAUGAGGAUCACCCAUGUAAACUUUUAGUUUAAUUUGAAUGUGUAGAAGGGACAUUUU [Ex3 #44] (Eterna round: R97, puzzle: Exclusion 3) |  | 34.3 | 25.4 |  |
| UUUUAUAGAGGAUAUGCGUGAAUAUAUAUUCAUGGAAAUUUACAUGAGGAUCACCCAUGUAGAAGGCUGUGUUU [LRO-Excl2-19-mod 090 by JR] (Eterna round: R97, puzzle: Exclusion 2) |  | 14.1 | 14.5 |  |

| Sequence | apparent KD of MS2 coat protein [2, 6] [nM] | apparent KD of MS2 coat protein ([2]; input ligand: FMN 200 uM) [nM] | apparent KD of MS2 coat protein ([2]; input ligand: none) [nM] | other results |
| --- | --- | --- | --- | --- |
| UUUUCCUGGCAAGGAUAUCCUGUGCGGUUCCGGCUCGUGUCUGUUACAUGAGGAUCACCCAUGUGGGAGAAGGUGCCUGUGGUU [Design 89] (Eterna round: R96, puzzle: Exclusion NG 2) |  | 272 | 41.7 | apparent KD of MS2 coat protein [2, 8]: 34.3 nM |
| UUUUGAUGAGGAUAUCGAGGUUAGUACAUGAGGAUCACCCAUGUUAUCCAGGUGUCGGUUCGAGAAGGUAUUGGAC [LRO-Ex5-16] (puzzle: Exclusion 5) | 16 |  |  |  |
| UUUUGGCAUGUAGGAUAUGGGUCCGAUUAGGAUUUAGAAGGACAUGAGGAUCACCCAUGUGCAUUUAAUUGGUCUUUACCUUUU [EXclNG1-LROPPY12] (Eterna round: R96, puzzle: Exclusion NG 1) |  | 130 | 82.5 | apparent KD of MS2 coat protein [2, 8]: 82.1 nM |
| UUUUGGCAUGUAGGAUAUGGGUCCGAUUAGGAUUUAGAAGGACAUGAGGAUCACCCAUGUGCAUUUAAUUGGUCUUUACUUUUU [EXclNG1-LROPPY13] (Eterna round: R96, puzzle: Exclusion NG 1) |  | 115 | 72.9 | apparent KD of MS2 coat protein [2, 8]: 61.2 nM |
| UUUUUACAUGAGGAUCACCCAUGUGAGGAUAUGGAGCGCGACCGCGCGGUCGCGUACACCAGAAGGCGCAGGAU [1st #76] (Eterna round: R97, puzzle: Exclusion 1) |  | 89.7 | 46.6 |  |
| UUUUUAUAUGAAGGAUAUACUUAACAUGAGGAUCACCCAUGUGGUGUUGUGAGUGAGUGAGUUUAGUAGAAGGUCAAGAAUUUU [JMF's solution 34] (Eterna round: R96, puzzle: Exclusion NG 2) |  | 521 | 324 | apparent KD of MS2 coat protein [2, 8]: 399 nM |
| UUUUUAUAUGAAGGAUAUACUUAACAUGAGGAUCACCCAUGUGGUGUUGUGAGUGAGUGAGUUUAGUAGAAGGUCAAUGAUUUC [JMF's solution 64] (Eterna round: R96, puzzle: Exclusion NG 2) |  | 764 | 439 | apparent KD of MS2 coat protein [2, 8]: 382 nM |
| UUUUUAUAUGAAGGAUAUACUUAACAUGAGGAUCACCCAUGUGGUGUUGUGAGUGAGUGAGUUUAGUAGAAGGUCAAUUAUCUU [JMF's solution 14] (Eterna round: R96, puzzle: Exclusion NG 2) |  | 699 | 373 | apparent KD of MS2 coat protein [2, 8]: 309 nM |
| UUUUUAUAUGAAGGAUAUACUUAACAUGAGGAUCACCCAUGUGGUGUUGUGAGUGAGUGAGUUUAGUAGAAGGUCAGUUCUUUU [JMF's solution 79] (Eterna round: R96, puzzle: Exclusion NG 2) |  | 414 | 611 | apparent KD of MS2 coat protein [2, 8]: 497 nM |
| UUUUUCGAACAAGCUUCGUACAUGAGGAUCACCCAUGUCGGUAGAUUUGAGUAGGUUUGGAUGGAAGUUCGUCUUAU [JR_SV3TOV1_Sub086] (puzzle: Sensor v3, turn-off variant 1) | 65.9 |  |  | apparent KD of MS2 coat protein [2, 5]: 28.2 nM; apparent KD of MS2 coat protein [2, 7]: 32.9 nM |
| UUUUUCGAACAAGCUUCGUACAUGAGGAUCACCCAUGUUGGUAGAUUUGAGUAGGUUUGGAUGUAAGCUCGUCUUAU [JR_SV3TOV1_Sub082] (puzzle: Sensor v3, turn-off variant 1) | 313 |  |  | apparent KD of MS2 coat protein [2, 5]: 98.7 nM; apparent KD of MS2 coat protein [2, 7]: 129 nM |
| UUUUUGUGAGGAUAUACGUAGUAGAACAAUAGUACUACUACGUAGAAGGCACAUGAGGAUCACCCAUGUUCCUC [Fiskers Ex 4 Super stable 44 mod 14] (puzzle: Exclusion 4) | 45.2 |  |  |  |
| UUUUUGUGAGGAUAUGGAAUAUCUUCUAUUUAUUAUUAAUUCCAGAAGGCACAUGAGGAUCACCCAUGUAUUUU [Ex4 - 3 - 35] (puzzle: Exclusion 4) | 20.7 |  |  |  |
| UUUUUGUUUUUGUUUUUUGACAUGAGGAUCACCCAUGUCACGAGCAGAUCUUCAUGCAAGCUUUUUGCUCGUCUUAU [Sensor v3 - Turn-off variant 1 - 39] (puzzle: Sensor v3, turn-off variant 1) | 46.9 |  |  | apparent KD of MS2 coat protein [2, 5]: 62.8 nM; apparent KD of MS2 coat protein [2, 7]: 83.3 nM |
| UUUUUUGUUGUGAGGAUAUCGUAUUUUUUUUGUUACGAGAAGGCACAUGAGGAUCACCCAUGUUUCUUGAUGUU [JR_BMOE4_Sub066] (puzzle: Brourd's mod of Exclusion 4) | 16.8 |  |  |  |
| UUUUUUGUUGUGAGGAUAUCGUUUUUGUUUUGGAUCGAGAAGGCACAUGAGGAUCACCCAUGUUUGUUGUGGUU [JR_BMOE4_Sub087] (puzzle: Brourd's mod of Exclusion 4) | 78.3 |  |  |  |
| UUUUUUUUGCGAGGAUAUGCUUUUAGUAAGUUAGCAGAAGGCGCGUUACAUAGAACCUCUUCUUACAUGAGGAUCACCCAUGUU [JR_ExcNG1_Sub035] (Eterna round: R96, puzzle: Exclusion NG 1) |  | 95.6 | 61.9 | apparent KD of MS2 coat protein [2, 8]: 56 nM |

Source: the supplement of paper PMC9170038
